Results reported in patent US20170305994A1 (Novo Nordisk, published 2017).
Changes are numbered by the printed parent chain. Numbers in names are those of the source. Like-named read-outs stand apart in the source and are kept apart here.

Columns and labels:
[1] = biological target: T1, human DR3 (full length, on cells) (human, UniProt Q93038 25-417); assay: cell-based or functional assay
T1 sequence: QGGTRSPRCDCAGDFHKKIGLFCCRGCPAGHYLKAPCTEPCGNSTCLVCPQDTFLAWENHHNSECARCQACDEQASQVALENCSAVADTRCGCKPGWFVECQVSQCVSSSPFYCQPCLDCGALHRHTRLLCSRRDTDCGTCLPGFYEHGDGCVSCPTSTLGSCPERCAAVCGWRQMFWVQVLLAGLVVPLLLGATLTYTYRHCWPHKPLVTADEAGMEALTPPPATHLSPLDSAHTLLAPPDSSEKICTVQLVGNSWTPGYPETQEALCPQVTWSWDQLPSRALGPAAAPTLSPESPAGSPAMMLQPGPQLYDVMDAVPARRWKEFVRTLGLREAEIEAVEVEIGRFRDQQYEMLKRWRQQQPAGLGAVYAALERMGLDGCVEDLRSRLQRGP

[2] = biological target: T1, human DR3 (full length, on cells); assay: flow cytometry on IL-12/IL-18/TL1A activated CD4+ T cells, 1 µg/ml
Method: (§1) Buffy Coats were obtained from normal healthy volunteers from Copenhagen University Hospital. CD4+ T cells were isolated through magnetic bead separation. Cells were activated with 2 ng/ml IL-12, 50 ng/ml IL-18 and 100 ng/ml TL1A (Flag-HIS-TEV-TL1A-produced at Novo Nordisk A/S) and cultured for 5 days. On day 5 cells were stained with 10, 5, 1, 0.5, 0.1 or 0.0001 μg/ml of the anti-DR3 mAb clones 0072, 0073, or 0077, or with Fab fragment clones 0087, 0088 and 0091. A secondary PE conjugated goat-anti-mouse (H+L) was used for detection.
The greater observed MFI values of IgG treated compared with Fab treated cells was expected since the secondary (detecting) antibody (anti-IgG heavy and light chain) bound to both Fab and Fc parts of the full-length IgG antibody clones, but only to Fab parts of Fab clones (Table 9).

[3] = biological target: T1, human DR3 (full length, on cells); assay: as above; remark: listed apart in the source
Method: as §1
as §1, with “Material and Methods: Buffy” for “Buffy”, “Copenhagen” for “Copenhagen University”, “0088 or” for “0088 and”, “detection. Samples were in duplicate. Staining intensity was evaluated by FACS.” for “detection.”

[4] = biological target: T1, human DR3 (full length, on cells); assay: cell-based or functional assay; remark: listed apart in the source
[5] = biological target: T1, human DR3 (full length, on cells); assay: cell-based or functional assay; remark: listed apart in the source
[6] = biological target: T1, human DR3 (full length, on cells); assay: cell-based or functional assay; remark: listed apart in the source
[7] = biological target: T1, human DR3 (full length, on cells); assay: cell-based or functional assay; remark: listed apart in the source
[8] = biological target: T1, human DR3 (full length, on cells); assay: flow cytometry on CD3/CD28-stimulated human CD4+ T cells
Method: Human CD4-positive T cells were purified from Buffy coats using CD4 Rosettesep (Stem cell technologies) and Histopaque (Sigma). T cells were stimulated with CD3/CD28 Dynabeads (Invitrogen) at a 1:1 ratio for 4 days in T75 flask at 2 mio CD4 T cells/ml in RPMI supplemented with 10% fcs. Beads were removed using a magnet, and cells were washed twice before titrating in antibodies on 500.000 cells/staining. Binding saturation was measured after incubation with goat-anti-mouse phycoerythrin (Jackson ImmunoResearch) and cells were subsequently analysed by flow cytometry on a BD LSRII. All antibodies reached saturation at 3 μg/ml.

B1: 0087 (Fab from papain cleavage of mAb 0072) (Fab, V domains shown)
VH: EVKLVESGGGLVKPGGSLKLSCSASGFAFSNYDMSWVRQTPEKRLEWVAAFSSDGYTFYPDSLKGRFTISRDNARNTLYLQMSSLGSEDTALYCCARHADYANYPVMDYWGQGTSVTVSS
VL: DIVLAQSPASLLVSLGQRATISCRASKSVSTSGYSYMHWYQQKPGQPPKLLIYLASNLESGVPARFSGSGSGTDFTLNIHPVEEEDAATYYCQHSRELPLTFGAGTMLELKR
notes: murine IgG1 Fab by papain cleavage
fold response, DR3 reporter, 40 ng/ml TL1A + 0.1 microg/ml [1]: 5.8 fold | fold response, DR3 reporter, 40 ng/ml TL1A + 1 microg/ml [1]: 2.7 fold | fold response, DR3 reporter, 40 ng/ml TL1A + 10 microg/ml [1]: 2.1 fold | fold response, DR3 reporter, 40 ng/ml TL1A + 100 microg/ml [1]: 2.1 fold | fold response, DR3 reporter, no TL1A, 0.1 microg/ml [1]: 1 fold | fold response, DR3 reporter, no TL1A, 1 microg/ml [1]: 1 fold | fold response, DR3 reporter, no TL1A, 10 microg/ml [1]: 1 fold | fold response, DR3 reporter, no TL1A, 100 microg/ml [1]: 1 fold | MFI [2]: 500 MFI | MFI [3]: 500 MFI

B2: 0170 (humanized IgG1 Fab of 0072; HC T28A S49A Y91; LC Q3A T5A S60A M4) (Fab, V domains shown)
VH: EVQLVESGGGLVQPGGSLRLSCAASGFTFSNYDMSWVRQAAGKGLEWVSAFSSDGYTFYPGAVKGRFTISRENAKNSLYLQMNSLRAGDTAVYYCARHADYANYPVMDYWGQGTLVTVSS
VL: DIAMAQSPSSLSASVGDRVTITCRASKSVSTSGYSYMHWYQQKPGKAPKLLIYLASNLEAGVPSRFSGSGSGTDFTLTISSLQPEDFATYYCQHSRELPLTFGGGTKVEIK
IC100 of inhibition of IFN-γ secretion, TL1A-costimulated RA synovial fluid cells [4]: ~0.1 µg/mL | IFN-γ, TL1A-costimulated lymphocytes, Fab 0.003 µg/mL [5]: 131 ng/mL | IFN-γ, TL1A-costimulated lymphocytes, Fab 0.01 µg/mL [5]: 101 ng/mL | IFN-γ, TL1A-costimulated lymphocytes, Fab 0.03 µg/mL [5]: 108 ng/mL | IFN-γ, TL1A-costimulated lymphocytes, Fab 0.1 µg/mL [5]: 46 ng/mL | IFN-γ, TL1A-costimulated lymphocytes, Fab 0.3 µg/mL [5]: 51 ng/mL | IFN-γ, TL1A-costimulated lymphocytes, Fab 1.0 µg/mL [5]: 63 ng/mL | IFN-γ, TL1A-costimulated RA SF cells, Fab 0.003 µg/mL [6]: 1790 pg/mL | IFN-γ, TL1A-costimulated RA SF cells, Fab 0.01 µg/mL [6]: 1640 pg/mL | IFN-γ, TL1A-costimulated RA SF cells, Fab 0.03 µg/mL [6]: 1360 pg/mL | IFN-γ, TL1A-costimulated RA SF cells, Fab 0.1 µg/mL [6]: 1170 pg/mL | IFN-γ, TL1A-costimulated RA SF cells, Fab 0.3 µg/mL [6]: 1300 pg/mL | IFN-γ, TL1A-costimulated RA SF cells, Fab 1 µg/mL [6]: 1250 pg/mL

B3: 0171 (humanized IgG1 Fab of 0072 without back mutations) (Fab, V domains shown)
VH: B2 VH with A41T, A62S
VL: B2 VL with A3Q, A5T, A60S
IC100 of inhibition of IFN-γ secretion, TL1A-costimulated RA synovial fluid cells [4]: ~0.1 µg/mL | IFN-γ, TL1A-costimulated lymphocytes, Fab 0.003 µg/mL [5]: 140 ng/mL | IFN-γ, TL1A-costimulated lymphocytes, Fab 0.01 µg/mL [5]: 105 ng/mL | IFN-γ, TL1A-costimulated lymphocytes, Fab 0.03 µg/mL [5]: 69 ng/mL | IFN-γ, TL1A-costimulated lymphocytes, Fab 0.1 µg/mL [5]: 52 ng/mL | IFN-γ, TL1A-costimulated lymphocytes, Fab 0.3 µg/mL [5]: 62 ng/mL | IFN-γ, TL1A-costimulated lymphocytes, Fab 1.0 µg/mL [5]: 40 ng/mL | IFN-γ, TL1A-costimulated RA SF cells, Fab 0.003 µg/mL [6]: 1870 pg/mL | IFN-γ, TL1A-costimulated RA SF cells, Fab 0.01 µg/mL [6]: 1380 pg/mL | IFN-γ, TL1A-costimulated RA SF cells, Fab 0.03 µg/mL [6]: 1220 pg/mL | IFN-γ, TL1A-costimulated RA SF cells, Fab 0.1 µg/mL [6]: 1140 pg/mL | IFN-γ, TL1A-costimulated RA SF cells, Fab 0.3 µg/mL [6]: 1160 pg/mL | IFN-γ, TL1A-costimulated RA SF cells, Fab 1 µg/mL [6]: 1230 pg/mL

B4: 0173 (humanized IgG1 Fab of 0072; HC T28A S49A Y91S; LC Q3A T5A S60A M4L) (Fab, V domains shown)
VH: B2 VH with Y104S
VL: B2 VL with M4L
IC100 of inhibition of IFN-γ secretion, TL1A-costimulated RA synovial fluid cells [4]: ~0.1 µg/mL | IFN-γ, TL1A-costimulated lymphocytes, Fab 0.003 µg/mL [5]: 160 ng/mL | IFN-γ, TL1A-costimulated lymphocytes, Fab 0.01 µg/mL [5]: 163 ng/mL | IFN-γ, TL1A-costimulated lymphocytes, Fab 0.03 µg/mL [5]: 95 ng/mL | IFN-γ, TL1A-costimulated lymphocytes, Fab 0.1 µg/mL [5]: 69 ng/mL | IFN-γ, TL1A-costimulated lymphocytes, Fab 0.3 µg/mL [5]: 62 ng/mL | IFN-γ, TL1A-costimulated lymphocytes, Fab 1.0 µg/mL [5]: 48 ng/mL | IFN-γ, TL1A-costimulated RA SF cells, Fab 0.003 µg/mL [6]: 1550 pg/mL | IFN-γ, TL1A-costimulated RA SF cells, Fab 0.01 µg/mL [6]: 1230 pg/mL | IFN-γ, TL1A-costimulated RA SF cells, Fab 0.03 µg/mL [6]: 1130 pg/mL | IFN-γ, TL1A-costimulated RA SF cells, Fab 0.1 µg/mL [6]: 1130 pg/mL | IFN-γ, TL1A-costimulated RA SF cells, Fab 0.3 µg/mL [6]: 992 pg/mL | IFN-γ, TL1A-costimulated RA SF cells, Fab 1 µg/mL [6]: 1060 pg/mL

B5: 0073 (murine mAb purified from hybridoma 28F26A3) (antibody, V domains shown)
VH: EVKVVESGGGLVKPGGSLKLSCAASGFVFSSYDMSWVRQIPEKRLEWVAAISSGDYYTYYPDSVKGRFTISRDDARNTLYLQMSSLRSEDTALYYCARHRGGNYPQYAMDYWGQGTSVTVSS
VL: DILLTQSPASFAVSLGQRATISCRASKSVSTSGYNYIHWYQQKPGQPPKLLIYLTSNLESGVPARFSGSGSGTDFTLNIHPVEEEDAATYYCQHSRELPFTFGSGTKLEIKR
notes: murine IgG2a, kappa; also called 0085
fold response, DR3 reporter, 40 ng/ml TL1A + 0.1 microg/ml [7]: 24.2 fold | fold response, DR3 reporter, 40 ng/ml TL1A + 1 microg/ml [7]: 27.9 fold | fold response, DR3 reporter, 40 ng/ml TL1A + 10 microg/ml [7]: 25.5 fold | fold response, DR3 reporter, 40 ng/ml TL1A + 100 microg/ml [7]: 19 fold | fold response, DR3 reporter, no TL1A, 0.1 microg/ml [7]: 12.8 fold | fold response, DR3 reporter, no TL1A, 1 microg/ml [7]: 14.4 fold | fold response, DR3 reporter, no TL1A, 10 microg/ml [7]: 12.8 fold | fold response, DR3 reporter, no TL1A, 100 microg/ml [7]: 6.9 fold | Median Fluorescent Intensity [8]: 2840 | Staining index (MFI Ab/MFI Isotype) [8]: 12.8 | saturation concentration [8]: 3 µg/mL | MFI [2]: 1300 MFI | MFI [3]: 1300 MFI

B6: 0088 (Fab from papain cleavage of mAb 0073) (Fab, V domains shown)
VH: B5 VH
VL: B5 VL
notes: murine IgG2a Fab by papain cleavage
fold response, DR3 reporter, 40 ng/ml TL1A + 0.1 microg/ml [1]: 15.2 fold | fold response, DR3 reporter, 40 ng/ml TL1A + 1 microg/ml [1]: 6.3 fold | fold response, DR3 reporter, 40 ng/ml TL1A + 10 microg/ml [1]: 2.9 fold | fold response, DR3 reporter, 40 ng/ml TL1A + 100 microg/ml [1]: 2.8 fold | fold response, DR3 reporter, no TL1A, 0.1 microg/ml [1]: 1.1 fold | fold response, DR3 reporter, no TL1A, 1 microg/ml [1]: 1.1 fold | fold response, DR3 reporter, no TL1A, 10 microg/ml [1]: 1.1 fold | fold response, DR3 reporter, no TL1A, 100 microg/ml [1]: 1 fold | MFI [2]: 500 MFI | MFI [3]: 500 MFI
